{
  "source": "patent US20130040837",
  "about": "“APTAMER CELL COMPOSITIONS” (BRIGHAM AND WOMEN'S HOSPITAL, INC., published 2013)",
  "binders": {"B1": {"name": "scrambled sequence control DNA (ssDNA)", "DNA": "GATGTAGGGACAGTCAAATGGAGTGGTTCAACCGCCCATCTTCAACAAT"}, "B2": {"name": "PDGF quench sensor 2 (structured_DNA)", "DNA 1": "AAGGCTACGGCACGTAGAGCATCACCATGATCCTGTGTGGTCTATGTCGTCGTTCG", "DNA 2": "CGAACGACGACATAGACCACA"}, "B3": {"name": "P-selectin aptamer (ssRNA)", "RNA": "CUCAACGAGCCAGGAACAUCGACGUCAGCAAACGCGAG", "modifications": "2'-F on C and U"}, "B4": {"name": "L-selectin aptamer (ssDNA)", "DNA": "TAGCCAAGGTAACCAGTACAAGGTGCTAAACGTAATGGCTTCGGCTTAC", "modifications": "3' inverted T"}, "B5": {"name": "PDGF FRET sensor 5 (structured_DNA)", "DNA 1": "AAGGCTACGGCACGTAGAGCATCACCATGATCCTGTGTGGTCTGTGTCG", "DNA 2": "CGACACAGACCACA"}},
  "key": {"L-selectin [1]": {"molecular_target": "T1, L-selectin (UniProt P14151 P14151:39-332)", "T1 sequence": "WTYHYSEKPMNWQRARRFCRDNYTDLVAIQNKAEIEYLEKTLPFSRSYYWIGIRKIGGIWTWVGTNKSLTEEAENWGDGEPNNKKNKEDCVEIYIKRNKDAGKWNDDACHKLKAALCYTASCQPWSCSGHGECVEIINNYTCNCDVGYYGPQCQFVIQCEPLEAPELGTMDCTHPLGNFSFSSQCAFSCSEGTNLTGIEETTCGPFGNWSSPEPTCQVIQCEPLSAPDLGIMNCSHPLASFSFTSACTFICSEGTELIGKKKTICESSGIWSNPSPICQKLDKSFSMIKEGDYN", "experiment": "static adhesion normalised to L-Aptamer-MSC; PBS-MSC background 6.4±1.78", "details": "tags: coated on surface; label: 3'-biotin", "experimental": "After we confirmed the successful conjugation and the availability of aptamers on the MSC surface, we investigated the interactions between L-Aptamer-MSCs and L-selectin coated surfaces under both static and flow conditions. For the static adhesion assay, aptamer modified and unmodified MSCs were incubated with L-selectin coated surfaces for 10 minutes, and unbound cells were then removed through rinsing."}, "[2]": {"molecular_target": "T2, PDGF-BB (platelet-derived growth factor) (UniProt P01127 P01127:82-190)", "T2 sequence (P01127 82-190, one chain of several)": "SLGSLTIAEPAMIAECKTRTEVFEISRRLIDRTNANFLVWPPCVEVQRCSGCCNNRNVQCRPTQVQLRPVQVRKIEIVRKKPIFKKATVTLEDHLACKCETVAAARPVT", "experiment": "fluorescence quenching by flow cytometry on beads and MSCs, 10 nM PDGF; detection range several hundred pM to low nM on cells in PBS; best in PBS, then PBS with 0.9 mM CaCl2 and 0.5 mM MgCl2, then medium", "details": "chain copies: 2 (inferred); label: 5'-FAM; complementary strand 5'-biotin, 3'-dabcyl", "experimental": "FIGS. 11C-11D are bar graphs depicting the performance of sensors 1 and 2 immobilized on streptavidin beads for detection of PDGF in PBS (11C) and PBS with 0.9 mM CaCl₂ and 0.5 mM MgCl₂ (11D) were studied by flow cytometry. Upon adding PDGF (10 nM), the FAM green signal is quenched. Sensor 2 functions better than sensor 1 in PBS with and without Ca/Mg.\nA PDGF aptamer sensor was synthesized with FAM at the 5′ end of the aptamer and a quencher, dabcyl, at the 3′ end of the complementary strand, with a biotin molecule attached at the other end (FIG. 11A). Upon binding to the target PDGF, the aptamer undergoes a conformational change which brings FAM and dabcyl closer to each other and the fluorescence of FAM is quenched. One base pair C-G of the aptamer sensor was eliminated by changing a C base to A base (FIG. 11B). Therefore, sensor 2 has less nonspecific folding and better performance in the presence of divalent metal ions than sensor 1. Sensor 1 and 2 were immobilized on streptavidin beads, and their performances in PBS (FIG. 11C) and PBS with Ca/Mg (FIG. 11D) were studied by flow cytometry and microscopy (FIGS. 12A-12B). Upon adding PDGF (10 nM), the FAM green signal was quenched. Sensor 2 functioned better than sensor 1 in PBS with and without Ca/Mg."}, "L-selectin [3]": {"molecular_target": "T1, L-selectin", "experiment": "specificity control, P-Aptamer-MSC on L-selectin", "details": "tags: coated on surface; label: 5'-biotin"}, "P-selectin": {"molecular_target": "P-selectin (UniProt P16109 P16109:42-771)", "sequence (P16109 42-771, one chain of several)": "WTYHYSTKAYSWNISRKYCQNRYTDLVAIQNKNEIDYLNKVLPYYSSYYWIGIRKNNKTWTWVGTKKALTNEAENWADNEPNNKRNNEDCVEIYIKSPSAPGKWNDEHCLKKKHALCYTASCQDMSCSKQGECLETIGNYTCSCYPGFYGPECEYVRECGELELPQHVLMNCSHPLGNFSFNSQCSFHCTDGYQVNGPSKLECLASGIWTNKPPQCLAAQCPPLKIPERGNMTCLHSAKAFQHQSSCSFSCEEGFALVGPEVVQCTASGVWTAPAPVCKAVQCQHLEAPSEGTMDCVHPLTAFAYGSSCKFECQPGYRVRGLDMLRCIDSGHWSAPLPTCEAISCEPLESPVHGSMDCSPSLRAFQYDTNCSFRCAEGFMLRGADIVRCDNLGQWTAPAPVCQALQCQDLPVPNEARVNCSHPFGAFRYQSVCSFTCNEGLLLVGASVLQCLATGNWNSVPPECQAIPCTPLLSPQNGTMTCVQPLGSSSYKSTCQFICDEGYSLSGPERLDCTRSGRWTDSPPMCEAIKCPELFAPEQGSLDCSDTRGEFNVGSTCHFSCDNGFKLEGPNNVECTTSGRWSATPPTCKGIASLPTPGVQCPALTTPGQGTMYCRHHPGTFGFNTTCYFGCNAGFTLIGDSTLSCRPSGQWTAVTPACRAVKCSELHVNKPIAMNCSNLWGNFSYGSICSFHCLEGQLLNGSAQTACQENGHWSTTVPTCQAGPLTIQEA", "experiment": "specificity control, static adhesion normalised to L-Aptamer-MSC on L-selectin", "details": "tags: P-selectin-Fc, coated on surface; chain copies: 2; label: 5'-biotin"}, "[4]": {"molecular_target": "T2, PDGF-BB (platelet-derived growth factor)", "experiment": "Cy3 quenched and Cy5 enhanced with 10 nM PDGF; solution in PBS and on MSCs in PBS, PBS with Ca/Mg and medium", "details": "chain copies: 2 (inferred); label: 5'-Cy5; complementary strand 5'-biotin, internal Cy3"}},
  "data": [
    {"binder": "B1", "values": [
      {"measurement": "binding result", "setting": "L-selectin [1]", "value": "no binding"}
    ]},
    {"binder": "B2", "values": [
      {"measurement": "binding result", "setting": "[2]", "value": "binds"}
    ]},
    {"binder": "B3", "values": [
      {"measurement": "binding result", "setting": "L-selectin [3]", "value": "no binding"}
    ]},
    {"binder": "B4", "values": [
      {"measurement": "binding result", "setting": "P-selectin", "value": "no binding"}
    ]},
    {"binder": "B5", "values": [
      {"measurement": "binding result", "setting": "[4]", "value": "binds"}
    ]}
  ]
}
